In US20240158515A1 (Regeneron, published 2024):

Key:
[1] = molecular target: full length human FGFR3b on BaF3 cells (BAF3/FGFR3b, ACL11991) (human, UniProt P22607 23-808); experiment: cell-based or functional assay
[2] = molecular target: full length human FGFR3b S249C on BaF3 cells (BAF3/FGFR3b_S249C, ACL11986) (human, UniProt P22607 23-808); experiment: cell-based or functional assay
[3] = molecular target: T1, human FGFR3c expressed with a C-terminal myc-myc-hexahistidine tag (hFGFR3c.mmH) (human, UniProt P22607 23-375); experiment: SPR Biacore, mAb captured on anti-hFc, 25C; row marked NB
T1 construct: also called REGN3155; monomeric human FGFR3c

[4] = molecular target: T2, human FGFR3b expressed with a C-terminal murine Fc tag (hFGFR3b.mFc) (human); experiment: competition ELISA: 4 nM hFGFR3b-mFc binding to plate-coated hFGF acidic
T2 construct: called dimeric; also called REGN3153; dimeric human FGFR3b
T2 chain: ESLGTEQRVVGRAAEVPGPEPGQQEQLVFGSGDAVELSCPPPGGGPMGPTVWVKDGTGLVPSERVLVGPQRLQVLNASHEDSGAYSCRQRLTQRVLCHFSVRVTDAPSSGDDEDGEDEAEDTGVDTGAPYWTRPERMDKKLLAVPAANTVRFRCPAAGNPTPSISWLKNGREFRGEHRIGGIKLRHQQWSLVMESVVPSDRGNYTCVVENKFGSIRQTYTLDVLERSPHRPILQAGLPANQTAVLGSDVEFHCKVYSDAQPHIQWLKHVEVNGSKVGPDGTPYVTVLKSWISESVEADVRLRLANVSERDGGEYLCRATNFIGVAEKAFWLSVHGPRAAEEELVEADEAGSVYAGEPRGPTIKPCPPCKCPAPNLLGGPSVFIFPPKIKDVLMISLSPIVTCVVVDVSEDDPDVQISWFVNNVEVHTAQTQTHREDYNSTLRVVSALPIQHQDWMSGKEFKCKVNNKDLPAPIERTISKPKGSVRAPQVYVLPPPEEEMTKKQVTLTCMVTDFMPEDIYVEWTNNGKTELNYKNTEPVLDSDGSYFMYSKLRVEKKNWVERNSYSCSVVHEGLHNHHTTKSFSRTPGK

B1: H4H30063P (antibody, human IgG4 S228P, kappa, V domains shown)
VH: QVQLQESGPGLVKPSETLSLTCTVSGDSINSYFWSWIRQLPGKELEWIGHIYSSGSTRYNPSLQSRVTISIDTSKNQFSLKLSSVTAADTAVYYCARGASAVDYWGQGTLVTVSS
VL: EIVLTQSPGTLSLSPGERATLSCRTSQSISSGYLAWYQQKPGQAPRLLIYGASRRATGIPDRFSGSGSGTDFTLTISRLEPEDFVVYYCQQYGSSPYTFGQGTKLEIKR
notes: HCVR 2, LCVR 10; also called REGN15684
[1]
  IC50 [M], BaF3 proliferation (CellTiter-Glo) with 1 nM FGF1 + 5 ug/ml heparin: 6.06e-10 M
  Max Blocking (%), BaF3 proliferation (CellTiter-Glo) with 1 nM FGF1 + 5 ug/ml heparin: 98%
[2]
  IC50 [M], BaF3 proliferation (CellTiter-Glo) with 1 nM FGF1 + 5 ug/ml heparin: 5.08e-10 M
  Max Blocking (%), BaF3 proliferation (CellTiter-Glo) with 1 nM FGF1 + 5 ug/ml heparin: 93.4%
[3]
  90 nM hFGFR3c.mmH Bind (RU): -19.6 RU
[4]
  % Blocking at 200 nM mAb: 95%
  IC50: 2000 pM
